The target of this series is ZmHsf28 (Zea mays, UniProt K7V9Y4 1-267). The experiment in a line: EMSA; Chemiluminescence EMSA kit (Beyotime); buffer, salt, pH and temperature not stated; unlabeled probes as competitors. Conditions: protein: recombinant; tags: His (pET28a, Ni-NTA); chain copies: 3; blunt. (A gel shift assay detects complexes by their altered migration in electrophoresis.)
ZmHsf28, sequence (K7V9Y4 entry or part of it): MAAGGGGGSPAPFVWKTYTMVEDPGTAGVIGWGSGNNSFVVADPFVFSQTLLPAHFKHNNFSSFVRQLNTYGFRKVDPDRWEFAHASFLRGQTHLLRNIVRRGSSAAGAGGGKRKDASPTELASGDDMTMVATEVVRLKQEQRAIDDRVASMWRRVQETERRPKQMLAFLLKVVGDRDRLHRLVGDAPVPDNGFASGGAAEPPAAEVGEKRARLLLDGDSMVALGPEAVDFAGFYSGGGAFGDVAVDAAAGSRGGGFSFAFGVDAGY

B1: pZmZEP1 HSE probe (dsDNA)
DNA 1: GGGTGTTTTTCTGGAATCATGCA
DNA 2: TGCATGATTCCAGAAAAACACCC
In the case of B1, the binding result is reported as “binds”.

B2: pZmRD21 HSE probe (dsDNA)
DNA 1: TATCGGTTTTTTTAGAAGATATTATGGC
DNA 2: GCCATAATATCTTCTAAAAAAACCGATA
For B2, the binding result is “binds”.

B3: pZmAOS1 HSE probe (dsDNA)
DNA 1: GTCAAGTCGGGTCTAGAAACTCATAGGCA
DNA 2: TGCCTATGAGTTTCTAGACCCGACTTGAC
B3: the binding result is “binds”.

B4: pZmAAO4 HSE probe (dsDNA)
DNA 1: TCTTAATCTCCTAGAAAAATACGGT
DNA 2: ACCGTATTTTTCTAGGAGATTAAGA
Consider B4, for which the binding result is listed as “binds”.

B5: pZmCAT1 HSE probe (dsDNA)
DNA 1: GAAGATGAGCTTCTAGGACTGTTAGA
DNA 2: TCTAACAGTCCTAGAAGCTCATCTTC
B5: the binding result was “binds”.

These data come from PMC10179534, “Maize Transcription Factor ZmHsf28 Positively Regulates Plant Drought Tolerance”.
